Test results published in patent US7495068B2, “Antiangiogenic peptides, polypeptides encoding same and methods for inhibiting angiogenesis” (Abbott Laboratories, priority 1996, dated 2009).

B1: kringle 5 (Val^443-Ala^543): kringle 5 peptide fragment, amino acid positions 443-543 of human plasminogen (SEQ ID NO:1) (protein, listed as Homo sapiens)
chain: VAPPPVVLLPDVETPSEEDCMFGNGKGYRGKRATTVTGTPCQDWAAQEPHRHSIFTPETNPRAGLEKNYCRNPDGDVGGPWCYTTNPRKLYDYCDVPQCAA
B2: kringle 2 (Glu^161-Thr^245): kringle 2 fragment of plasminogen, SEQ ID NO:1 (protein, listed as Homo sapiens)
chain: ECEEECMHCSGENYDGKISKTMSGLECQAWDSQSPHAHGYIPSKFPNKNLKKNYCRNPDRELRPWCFTTDPNKRWELCDIPRCTT
B3: kringle 4 (Val^354-Val^443): kringle 4 fragment of plasminogen, SEQ ID NO:1 (protein, listed as Homo sapiens)
chain: VVQDCYHGDGQSYRGTSSTTTTGKKCQSWSSMTPHRHQKTPENYPNAGLTMNYCRNPDADKGPWCFTTDPSVRWEYCNLKKCSGTEASVV

What was measured:
[1] = test system: BCE Cells; assay: Endothelial proliferation assay (bFGF-stimulated); assay type: cell-based, bovine
Protocol: The in vitro proliferation of endothelial cells was determined as described by Lingen, et al., in Laboratory Investigation, 74: 476-483 (1996), which is hereby incorporated herein by reference, using the Cell Titer 96 Aqueous Non-Radioactive Cell Proliferation Assay kit (Promega® Corporation, Madison, Wis.). Bovine capillary (adrenal) endothelial cells were plated at a density of 1000 cells per well in a 96-well plate in Dulbecco's Modified Eagle Medium (DMEM) containing 10% donor calf serum and 1% BSA (bovine serum albumin, GIBCO® BRL, Gaithersburg, Md.). After 8 hours, the cells were starved overnight in DMEM containing 0.1% BSA then re-fed with media containing specified concentrations of inhibitor and 5 ng/mL bFGF (basic fibroblast growth factor). The results of the assay were corrected both for unstimulated cells (i.e. no bFGF added) as the baseline and for cells stimulated with bFGF alone (i.e. no inhibitor added) as the maximal proliferation. When multiple experiments were combined, the results were represented as the percent change in cell number as compared to bFGF alone.
The effect of kringle 5 peptide fragments on endothelial cell proliferation was determined in vitro using the above described endothelial cell proliferation assay. […]

[2] = test system: BCE Cells; conditions: rows marked *: data taken from Marti et al. 1994; cited from earlier work

Row | Molecule | fold increase in activity at inhibiting BCE cell proliferation compared to kringle 1-4 peptide fragments ([1]; vs kringle 1-4 peptide fragments) [fold] | fold increase in activity at inhibiting BCE cell proliferation compared to kringle 5 fragment 443-546 of SEQ ID NO:1 ([1]; vs kringle 5 (443-546)) [fold] | Antiproliferative Activity of BCE Cells (ED50) [2]
1 | B1 | ~800 | ~300 | –
2 | B2 | – | – | no activity
3 | B3 | – | – | no activity
